These results are taken from PMC11484851, “Structure of endothelin ETB receptor–Gi complex in a conformation stabilized by unique NPxxL motif” (Communications Biology, 2024).

Targets include ETBR H314A (human) (UniProt P24530); ETBR K391A (human) (UniProt P24530); ETBR M296A (human) (UniProt P24530); ETBR M300A (human) (UniProt P24530); ETBR N134A (human) (UniProt P24530); ETBR R318A (human) (UniProt P24530); ETBR S390A (human) (UniProt P24530); ETBR T324A (human) (UniProt P24530); ETBR V325A (human) (UniProt P24530); ETBR V389A (human) (UniProt P24530).
The target of assay [1] is Flag-tagged wild-type endothelin type B receptor (ETBR) (human) (UniProt P24530).
Chain of Flag-tagged wild-type endothelin type B receptor (ETBR) (human) (P24530 27-442): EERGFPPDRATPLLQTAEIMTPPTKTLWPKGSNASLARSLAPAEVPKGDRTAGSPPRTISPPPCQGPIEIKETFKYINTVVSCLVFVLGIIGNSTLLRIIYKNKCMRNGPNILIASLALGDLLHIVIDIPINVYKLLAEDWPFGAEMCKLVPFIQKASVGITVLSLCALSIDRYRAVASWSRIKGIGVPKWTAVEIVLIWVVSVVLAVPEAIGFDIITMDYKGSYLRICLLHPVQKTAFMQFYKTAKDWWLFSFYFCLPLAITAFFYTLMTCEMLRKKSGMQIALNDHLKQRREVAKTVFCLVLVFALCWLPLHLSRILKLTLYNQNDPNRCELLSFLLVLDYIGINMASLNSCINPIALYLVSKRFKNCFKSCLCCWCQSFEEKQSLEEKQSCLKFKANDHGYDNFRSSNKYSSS
Assay [2] addresses wild-type ETB receptor, Flag-tagged, expressed in HEK293A cells (human) (UniProt P24530).

Chain of LgBiT-inserted Gαi1, wild type (NanoBiT G-protein construct) (P63096 whole entry): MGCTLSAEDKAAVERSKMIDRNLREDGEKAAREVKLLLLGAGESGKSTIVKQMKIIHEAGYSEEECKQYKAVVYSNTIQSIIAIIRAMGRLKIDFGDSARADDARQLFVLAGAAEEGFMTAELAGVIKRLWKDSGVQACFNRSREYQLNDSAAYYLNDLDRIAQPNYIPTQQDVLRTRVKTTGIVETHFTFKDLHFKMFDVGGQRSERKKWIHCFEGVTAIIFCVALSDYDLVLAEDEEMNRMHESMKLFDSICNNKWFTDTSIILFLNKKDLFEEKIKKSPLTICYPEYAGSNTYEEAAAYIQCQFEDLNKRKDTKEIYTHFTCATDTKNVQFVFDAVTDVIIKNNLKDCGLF
Chain of wild-type ETB receptor, Flag-tagged, expressed in HEK293A cells (human) (P24530 27-442): as the sequence (P24530 27-442) above
Chain of ETBR S390A (human) (P24530 27-442 S390A): as the sequence (P24530 27-442) above, with S364A counted along it
Chain of ETBR M296A (human) (P24530 27-442 M296A): as the sequence (P24530 27-442) above, with M270A counted along it
Chain of ETBR R318A (human) (P24530 27-442 R318A): as the sequence (P24530 27-442) above, with R292A counted along it
Chain of ETBR T324A (human) (P24530 27-442 T324A): as the sequence (P24530 27-442) above, with T298A counted along it
Chain of ETBR M300A (human) (P24530 27-442 M300A): as the sequence (P24530 27-442) above, with M274A counted along it
Chain of ETBR K391A (human) (P24530 27-442 K391A): as the sequence (P24530 27-442) above, with K365A counted along it
Chain of ETBR V325A (human) (P24530 27-442 V325A): as the sequence (P24530 27-442) above, with V299A counted along it
Chain of ETBR H314A (human) (P24530 27-442 H314A): as the sequence (P24530 27-442) above, with H288A counted along it
Chain of ETBR N134A (human) (P24530 27-442 N134A): as the sequence (P24530 27-442) above, with N108A counted along it
Chain of ETBR V389A (human) (P24530 27-442 V389A): as the sequence (P24530 27-442) above, with V363A counted along it

Consider “LgBiT-inserted Gαi1 L353A (from UniProt P63096 1-354) (natural protein)”, for which, in [1], the Supplementary Table 1f: Emax, %WT, of the ET-1 concentration–response in the NanoBiT Gi-protein dissociation assay, HEK293A cells is 7.8 % of WT.
On to “LgBiT-inserted Gαi1 G352A (from UniProt P63096 1-354) (natural protein)”, for which the Supplementary Table 1f: Emax, %WT, of the ET-1 concentration–response in the NanoBiT Gi-protein dissociation assay, HEK293A cells in [1] was 61.8 % of WT.
“LgBiT-inserted Gαi1, wild type (NanoBiT G-protein construct) (from UniProt P63096 1-354) (natural protein)”: the Supplementary Table 1e: Emax, %WT, of the ET-1 concentration–response in the NanoBiT Gi-protein dissociation assay, HEK293A cells is 90.2 % of WT in the assay with ETBR H314A (human); 91.2 % of WT with ETBR K391A (human); 88.2 % of WT with ETBR R318A (human); 77.3 % of WT with ETBR T324A (human); 96.3 % of WT with ETBR V389A (human). Also, the Supplementary Table 1d: Emax, %WT, of the ET-1 concentration–response in the NanoBiT Gi-protein dissociation assay, HEK293A cells in the assay with ETBR M296A (human) is 36.2 % of WT; in the assay with ETBR M300A (human), 46.9 % of WT; in the assay with ETBR V325A (human) it was 63.5 % of WT. Also, the Supplementary Table 1c: Emax, %WT, of the ET-1 concentration–response in the NanoBiT Gi-protein dissociation assay, HEK293A cells with ETBR N134A (human) is 54.6 % of WT; in the assay with ETBR S390A (human), 28.8 % of WT. In addition, the Supplementary Table 1c: Emax, %WT, of the ET-1 concentration–response in the NanoBiT Gi-protein dissociation assay, HEK293A cells; WT (35% plasmid) in assay [1] was 62.9 % of WT. In addition, the Supplementary Table 1c: Emax, %WT, of the ET-1 concentration–response in the NanoBiT Gi-protein dissociation assay, HEK293A cells; WT (50% plasmid) in [1] is 76.5 % of WT. The Supplementary Table 1c: Emax, %WT, of the ET-1 concentration–response in the NanoBiT Gi-protein dissociation assay, HEK293A cells; WT (100% plasmid) in assay [1] was 100 % of WT. Besides, the Supplementary Table 1f: Emax, %WT, of the ET-1 concentration–response in the NanoBiT Gi-protein dissociation assay, HEK293A cells; WT Gαi in assay [1] was 100 % of WT. Further, in assay [1], the Supplementary Table 1d (same row in 1e): Emax, %WT, of the ET-1 concentration–response in the NanoBiT Gi-protein dissociation assay, HEK293A cells; WT (100% plasmid) is 100 % of WT.
Regarding “LgBiT-inserted Gαi1 N347A (from UniProt P63096 1-354) (natural protein)”, the Supplementary Table 1f: Emax, %WT, of the ET-1 concentration–response in the NanoBiT Gi-protein dissociation assay, HEK293A cells in assay [1] is 96.5 % of WT.
With “LgBiT-inserted Gαi1 K345A (from UniProt P63096 1-354) (natural protein)”, the Supplementary Table 1f: Emax, %WT, of the ET-1 concentration–response in the NanoBiT Gi-protein dissociation assay, HEK293A cells in assay [1] was 48.9 % of WT.
Turning to “LgBiT-inserted Gαi1 D350A (from UniProt P63096 1-354) (natural protein)”, the Supplementary Table 1f: Emax, %WT, of the ET-1 concentration–response in the NanoBiT Gi-protein dissociation assay, HEK293A cells in [1] was 92.2 % of WT.
“LgBiT-inserted Gαi1 D341A (from UniProt P63096 1-354) (natural protein)”: in [1], the Supplementary Table 1f: Emax, %WT, of the ET-1 concentration–response in the NanoBiT Gi-protein dissociation assay, HEK293A cells was 92.1 % of WT.
Regarding “LgBiT-inserted Gαi1 C351A (from UniProt P63096 1-354) (natural protein)”, in assay [1], the Supplementary Table 1f: Emax, %WT, of the ET-1 concentration–response in the NanoBiT Gi-protein dissociation assay, HEK293A cells was 87 % of WT.
“Gαi1 G352A (LgBiT-inserted NanoBiT construct) (from UniProt P63096 1-354) (natural protein)” registered a NanoBiT Gi-protein dissociation assay, ET-1-induced, HEK293A cells, mutant Gαi against wild type in [2] of 50 % decrease.
On to “LgBiT-inserted Gαi1 F354A (from UniProt P63096 1-354) (natural protein)”, for which the Supplementary Table 1f: Emax, %WT, of the ET-1 concentration–response in the NanoBiT Gi-protein dissociation assay, HEK293A cells in [1] was 87.8 % of WT.
The substance “Gαi1 K345A (LgBiT-inserted NanoBiT construct) (from UniProt P63096 1-354) (natural protein)” registered a NanoBiT Gi-protein dissociation assay, ET-1-induced, HEK293A cells, mutant Gαi against wild type in assay [2] of 50 % decrease.
